For one experiment, the target named is VPS29 (recombinant) (human, UniProt Q9UBQ0 1-182). In words: ITC; VPS35L peptides at 600 μM titrated into 20 μM VPS29, 100 mM Tris pH 7.4, 300 mM NaCl, 25°C, single site model. Particulars: both partners purified.
The next experiment concerns the target T1, DENND10 (recombinant) (human, UniProt Q8TCE6 1-357).
T1 construct: DENND10/FAM45A, human; also called FAM45A; recombinant DENND10; source: E. coli BL21 (DE3) (pGEX6P-1), purified (glutathione resin, gel filtration)
Briefly: ITC; 50 μM DENND10 titrated into 10 μM wild type or mutant CCDC22(325–485)+CCDC93(310–488) complex, 100 mM Tris pH 7.4, 300 mM NaCl, 25°C, single site model. Particulars: both partners purified.

Positions count from the first letter of the chain named. Numbers in names are those of the source. Where “and” joins values, the source holds several entries; their conditions need not be identical. Equal entries are not always repeated.

T1 sequence (Q8TCE6 whole entry): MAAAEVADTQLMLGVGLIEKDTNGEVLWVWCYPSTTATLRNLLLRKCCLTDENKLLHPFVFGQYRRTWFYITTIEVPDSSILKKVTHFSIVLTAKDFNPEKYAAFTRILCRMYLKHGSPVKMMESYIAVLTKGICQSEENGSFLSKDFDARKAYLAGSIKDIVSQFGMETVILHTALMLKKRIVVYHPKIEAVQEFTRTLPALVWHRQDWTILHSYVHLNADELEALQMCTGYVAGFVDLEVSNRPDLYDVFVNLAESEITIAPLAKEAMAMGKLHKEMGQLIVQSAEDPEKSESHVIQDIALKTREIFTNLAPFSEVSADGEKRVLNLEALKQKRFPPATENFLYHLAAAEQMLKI

B1: VPS35L (16-38) peptide (peptide)
peptide: EFASCRLEAVPLEFGDYHPLKPI
notes: VPS35L, human, residues 16-38; also called VPS35L peptide (Glu16-Ile38); source: synthetic peptide (Genscript)
As a reminder, the Kd is the free concentration of one partner at which half of the binding sites on the other are occupied at equilibrium, for simple one-to-one binding. With B1, in the experiment with VPS29 (recombinant), the Kd was 1870 nM.

B2: CC1-CC2 complex (CCDC22(325–485) + CCDC93(310–488)), wild type (complex, human)
chain 1: VTWAAQEQELESLREQLEGVNRSIEEVEADMKTLGVSFVQAESECRHSKLSTAEREQALRLKSRAVELLPDGTANLAKLQLVVENSAQRVIHLAGQWEKHRVPLLAEYRHLRKLQDCRELESSRRLAEIQELHQSVRAAAEEARRKEEVYKQLMSELETLP
chain 2: GTSQLHRRKVISLNKQIAQKTKHLEELRASHTSLQARYNEAKKTLTELKTYSEKLDKEQAALEKIESKADPSILQNLRALVAMNENLKSQEQEFKAHCREEMTRLQQEIENLKAERAPRGDEKTLSSGEPPGTLTSAMTHDEDLDRRYNMEKEKLYKIRLLQARRNREIAILHRKIDEV
notes: CCDC22, human, CC1 and CC2 coiled-coil regions; CCDC93, human, CC1 and CC2 coiled-coil regions; also called CCDC22-CCDC93; source: E. coli BL21 (DE3), co-expressed (pRSF-duet), purified (Talon, gel filtration)
With B2, the Kd with DENND10 (recombinant) was 34 nM and 28 nM.

B3: CC1-CC2 complex, CCDC93 (M392R) (complex, human)
chain 1: B2 chain 1
chain 2: B2 chain 2 with M83R
notes: CCDC22, human, CC1 and CC2 coiled-coil regions; CCDC93, human, CC1 and CC2 coiled-coil regions; source: E. coli BL21 (DE3), co-expressed (pRSF-duet), purified (Talon, gel filtration)
B3: the Kd with DENND10 (recombinant) came to 89.1 ± 10 nM.

B4: CC1-CC2 complex, CCDC22 (V360E) (complex, human)
chain 1: B2 chain 1 with V36E
chain 2: B2 chain 2
notes: as for B3
For the molecule B4, the Kd in the experiment with DENND10 (recombinant) was 47.9 ± 3.5 nM.
